In US9073974B2, “RGD-containing cyclic peptides” (The Regents of the University of California, priority 2009, dated 2015):
Numbered stars: 1 amine (or outer) side, 2 acyl side, 3 side chain; on linkers, the order of the positions; unused ones are H or OH. Bridge positions count the residues as written; N and C are the ends. Square brackets hold non-standard residues; d marks the D form. Ends that are not written are not given here. Peptide text beside a SMILES is read from it. * marks the point of attachment. Benzoyl(4-NO2) = O=C(c1ccc([N+](=O)[O-])cc1)*; Pro(5R-Ph) = O=C(O)[C@@H]1CC[C@H](c2ccccc2)N1; Phenylacetyl(4-Cl) = O=C(Cc1ccc(Cl)cc1)*; dBta = N[C@H](Cc1csc2ccccc12)C(=O)O; Cyclohexylacetyl = O=C(CC1CCCCC1)*; X2 = O=C(C1(N[*:1])CCC(O)CC1)[*:2]; 2Naphthoyl = O=C(c1ccc2ccccc2c1)*; NMeR = CN[C@@H](CCCNC(=N)N)C(=O)O; dCit = NC(=O)NCCC[C@@H](N)C(=O)O; dPen = CC(C)(S)[C@@H](N)C(=O)O; Isobutyryl = CC(C)C(=O)*; Pentanoyl = CCCCC(=O)*; βAla = NCCC(=O)O; Sar = CNCC(=O)O

Legend:
[1] = molecular target: αvβ3 integrin (Homo sapiens, UniProt P05106+P06756); test: Inhibition of biotinylated LXW7 binding to αvβ3-K562 cells (flow cytometry); set-up: expressed in transfected cells; host or cells: K562 (gift of Dr. Yoshikazu Takada, UC Davis); conditions: LXW9-92: inhibiting the binding of biotinylated LXW7 against αvβ3-K562 cells
Method: The apparent IC50 were calculated using Graph Prism software (≦www.graphpad.com≧).
The samples were analyzed with Coulter XL-MCL flow cytometry. The histogram and mean fluorescence intensity (MFI) were determined. The apparent Kd, IC50 were calculated using Graph Prism software (≦www.graphpad.com≧).

[2] = molecular target: T1, αvβ3 integrin (human, UniProt P06756 31-1048; P05106 27-788); test: flow cytometry, competition with biotinylated LXW7 on αvβ3-K562 cells; ++ = IC50 1-10 µM
T1 construct: whole, on cells; Same entry used for αvβ3-K562, U-87 MG and A375M cells; also called αvβ3-K562; αvβ3 transfected K562 cells
T1 sequence (P06756 31-1048, chain 1 of 2): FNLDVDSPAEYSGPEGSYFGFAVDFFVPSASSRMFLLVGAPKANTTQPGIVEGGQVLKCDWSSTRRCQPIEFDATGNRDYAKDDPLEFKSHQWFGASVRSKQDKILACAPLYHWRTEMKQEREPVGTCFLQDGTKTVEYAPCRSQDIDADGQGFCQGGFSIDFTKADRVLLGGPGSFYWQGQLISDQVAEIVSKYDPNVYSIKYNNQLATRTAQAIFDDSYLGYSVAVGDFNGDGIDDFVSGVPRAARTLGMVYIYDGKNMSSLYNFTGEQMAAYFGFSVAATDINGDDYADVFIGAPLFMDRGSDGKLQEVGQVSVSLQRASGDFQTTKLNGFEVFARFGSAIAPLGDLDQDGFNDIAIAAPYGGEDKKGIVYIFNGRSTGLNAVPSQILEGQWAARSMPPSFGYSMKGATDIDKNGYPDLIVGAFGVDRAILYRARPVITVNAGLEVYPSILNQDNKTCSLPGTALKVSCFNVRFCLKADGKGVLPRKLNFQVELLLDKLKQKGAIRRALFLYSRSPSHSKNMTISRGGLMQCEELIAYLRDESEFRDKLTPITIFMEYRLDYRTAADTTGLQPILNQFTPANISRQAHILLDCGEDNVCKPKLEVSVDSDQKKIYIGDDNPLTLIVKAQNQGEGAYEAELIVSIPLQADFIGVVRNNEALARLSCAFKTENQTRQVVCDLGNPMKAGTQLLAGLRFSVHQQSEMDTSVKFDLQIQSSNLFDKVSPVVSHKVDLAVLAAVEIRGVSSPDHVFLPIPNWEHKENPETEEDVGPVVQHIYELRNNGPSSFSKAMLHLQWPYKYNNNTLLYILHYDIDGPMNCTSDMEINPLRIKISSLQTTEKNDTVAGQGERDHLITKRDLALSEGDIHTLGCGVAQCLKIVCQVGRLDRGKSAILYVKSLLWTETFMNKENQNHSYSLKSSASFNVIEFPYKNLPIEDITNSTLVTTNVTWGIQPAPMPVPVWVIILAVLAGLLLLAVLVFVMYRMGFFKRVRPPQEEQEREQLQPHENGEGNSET
T1 sequence (P05106 27-788, chain 2 of 2): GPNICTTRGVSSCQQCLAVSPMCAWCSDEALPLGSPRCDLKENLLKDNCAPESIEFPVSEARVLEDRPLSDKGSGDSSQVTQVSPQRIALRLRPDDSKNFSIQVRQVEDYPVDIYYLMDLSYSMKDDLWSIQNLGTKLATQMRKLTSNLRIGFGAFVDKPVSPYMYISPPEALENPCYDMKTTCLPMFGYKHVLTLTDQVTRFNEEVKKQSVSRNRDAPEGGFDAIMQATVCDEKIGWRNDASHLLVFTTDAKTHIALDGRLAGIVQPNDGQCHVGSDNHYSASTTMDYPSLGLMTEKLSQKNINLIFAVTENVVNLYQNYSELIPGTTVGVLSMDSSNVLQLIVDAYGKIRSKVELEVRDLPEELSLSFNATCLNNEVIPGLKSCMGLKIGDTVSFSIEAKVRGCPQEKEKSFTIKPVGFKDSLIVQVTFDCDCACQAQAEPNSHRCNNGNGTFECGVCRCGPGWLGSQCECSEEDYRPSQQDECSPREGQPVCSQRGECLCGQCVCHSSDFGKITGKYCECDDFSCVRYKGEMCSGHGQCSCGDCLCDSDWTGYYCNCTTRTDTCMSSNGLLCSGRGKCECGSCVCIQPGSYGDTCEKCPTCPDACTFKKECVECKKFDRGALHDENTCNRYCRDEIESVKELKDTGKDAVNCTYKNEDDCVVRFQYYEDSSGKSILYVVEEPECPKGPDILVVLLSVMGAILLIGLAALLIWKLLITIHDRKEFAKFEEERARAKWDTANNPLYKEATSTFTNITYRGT

Chain of αvβ3 integrin (Homo sapiens, UniProt P05106+P06756) (P06756 31-889 limits assumed): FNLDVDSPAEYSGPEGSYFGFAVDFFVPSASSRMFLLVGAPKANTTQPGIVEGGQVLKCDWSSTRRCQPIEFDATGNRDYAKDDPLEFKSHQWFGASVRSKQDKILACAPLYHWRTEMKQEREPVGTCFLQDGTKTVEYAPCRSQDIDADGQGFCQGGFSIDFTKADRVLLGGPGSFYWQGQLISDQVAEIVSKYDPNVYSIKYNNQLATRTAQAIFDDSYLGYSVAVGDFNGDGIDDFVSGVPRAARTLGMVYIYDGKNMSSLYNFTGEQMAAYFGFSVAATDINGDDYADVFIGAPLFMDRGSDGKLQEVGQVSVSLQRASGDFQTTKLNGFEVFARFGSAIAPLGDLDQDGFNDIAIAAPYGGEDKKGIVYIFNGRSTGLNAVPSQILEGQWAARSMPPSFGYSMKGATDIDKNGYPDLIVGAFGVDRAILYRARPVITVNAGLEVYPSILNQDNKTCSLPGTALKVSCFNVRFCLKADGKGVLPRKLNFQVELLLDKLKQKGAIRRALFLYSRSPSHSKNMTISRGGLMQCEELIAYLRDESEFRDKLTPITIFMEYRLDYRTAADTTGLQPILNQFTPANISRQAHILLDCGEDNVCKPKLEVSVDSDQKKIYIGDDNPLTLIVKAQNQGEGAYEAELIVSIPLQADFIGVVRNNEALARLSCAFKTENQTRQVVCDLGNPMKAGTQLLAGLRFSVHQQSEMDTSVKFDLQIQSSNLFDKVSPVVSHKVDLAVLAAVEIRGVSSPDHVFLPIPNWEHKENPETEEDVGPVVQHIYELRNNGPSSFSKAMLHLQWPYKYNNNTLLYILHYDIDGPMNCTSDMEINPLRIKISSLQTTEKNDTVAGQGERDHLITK
Chain of αvβ3 integrin (Homo sapiens, UniProt P05106+P06756) (P06756 891-1048 partner limits assumed): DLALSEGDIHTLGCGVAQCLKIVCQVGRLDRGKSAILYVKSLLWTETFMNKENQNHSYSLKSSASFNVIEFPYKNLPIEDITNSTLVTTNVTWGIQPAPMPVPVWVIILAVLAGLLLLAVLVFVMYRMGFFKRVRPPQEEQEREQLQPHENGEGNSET
Chain of αvβ3 integrin (Homo sapiens, UniProt P05106+P06756) (P05106 27-788): as the sequence (P05106 27-788, chain 2 of 2) above

| Molecule | IC50 ([1]; class symbols) [nM] | IC50 [2] [nM] | other results |
| --- | --- | --- | --- |
| CC[C@@H](C)[C@H]1NC(=O)C2(CCC(O)CC2)NC(=O)[C@H](CC(=O)O)NC(=O)CNC(=O)[C@H](CCCNC(=N)N)NC(=O)CN(C)C(=O)[C@H](N)CSSC[C@H](C(N)=O)NC1=O (some centres unmarked) [LXW32, c-Sar-RGD-Ahch-i c] (H-[dC][Sar]RGD[X2][dI][dC]-NH2; disulfide 1-8) |  |  | IC50 ([1]; LXW7 as internal reference): > 20000 nM |
| C=CC[C@H]1NC(=O)[C@@H](CC(=O)O)NC(=O)[C@H](CC(=O)O)NC(=O)CNC(=O)[C@H](CCCNC(=N)N)NC(=O)CNC(=O)[C@H](N)CSSC[C@@H](C(N)=O)NC1=O [LXW34, cGRGDd-DAgl-C] |  |  | IC50 ([1]; LXW7 as internal reference): > 20000 nM |
| [dC]GRGD[dD][dV]C-NH2 (disulfide 1-8; N-terminus assumed; SMILES CC(C)[C@H]1NC(=O)[C@@H](CC(=O)O)NC(=O)[C@H](CC(=O)O)NC(=O)CNC(=O)[C@H](CCCNC(=N)N)NC(=O)CNC(=O)[C@H](N)CSSC[C@@H](C(N)=O)NC1=O) [LXW10] |  | 1000 to 10000 |  |
| [dC]GRGD[dD][dV][dPen]-NH2 (disulfide 1-8; N-terminus assumed; SMILES CC(C)[C@H]1NC(=O)[C@@H](CC(=O)O)NC(=O)[C@H](CC(=O)O)NC(=O)CNC(=O)[C@H](CCCNC(=N)N)NC(=O)CNC(=O)[C@H](N)CSSC(C)(C)[C@H](C(N)=O)NC1=O) [LXW21] |  | 1000 to 10000 |  |
| [dC]GRGD[dCit][dBta][dC]-NH2 (disulfide 1-8; N-terminus assumed; SMILES N=C(N)NCCC[C@@H]1NC(=O)CNC(=O)[C@H](N)CSSC[C@H](C(N)=O)NC(=O)[C@@H](Cc2csc3ccccc23)NC(=O)[C@@H](CCCNC(N)=O)NC(=O)[C@H](CC(=O)O)NC(=O)CNC1=O) [LXW73] |  | 1000 to 10000 |  |
| CGRGD[dD][dV][dC]-NH2 (disulfide 1-8; N-terminus assumed; SMILES CC(C)[C@H]1NC(=O)[C@@H](CC(=O)O)NC(=O)[C@H](CC(=O)O)NC(=O)CNC(=O)[C@H](CCCNC(=N)N)NC(=O)CNC(=O)[C@@H](N)CSSC[C@H](C(N)=O)NC1=O) [LXW9] |  | 1000 to 10000 |  |
| {Benzoyl(4-NO2)}-[dC]GRGD[dD][dV][dC]-NH2 (disulfide 1-8; SMILES CC(C)[C@H]1NC(=O)[C@@H](CC(=O)O)NC(=O)[C@H](CC(=O)O)NC(=O)CNC(=O)[C@H](CCCNC(=N)N)NC(=O)CNC(=O)[C@H](NC(=O)c2ccc([N+](=O)[O-])cc2)CSSC[C@H](C(N)=O)NC1=O) [LXW82] |  | 1000 to 10000 |  |
| [dC]GRGD[dE][Pro(5R-Ph)][dC]-NH2 (disulfide 1-8; N-terminus assumed; SMILES N=C(N)NCCC[C@@H]1NC(=O)CNC(=O)[C@H](N)CSSC[C@H](C(N)=O)NC(=O)[C@@H]2CC[C@H](c3ccccc3)N2C(=O)[C@@H](CCC(=O)O)NC(=O)[C@H](CC(=O)O)NC(=O)CNC1=O) [LXW71] |  | 1000 to 10000 |  |
| [dPen]GRGD[dD][dV][dPen]-NH2 (disulfide 1-8; N-terminus assumed; SMILES CC(C)[C@H]1NC(=O)[C@@H](CC(=O)O)NC(=O)[C@H](CC(=O)O)NC(=O)CNC(=O)[C@H](CCCNC(=N)N)NC(=O)CNC(=O)[C@H](N)C(C)(C)SSC(C)(C)[C@H](C(N)=O)NC1=O) [LXW19] |  | 1000 to 10000 |  |
| [dC][dA]RGD[dD][dV][dC]-NH2 (disulfide 1-8; N-terminus assumed; SMILES CC(C)[C@H]1NC(=O)[C@@H](CC(=O)O)NC(=O)[C@H](CC(=O)O)NC(=O)CNC(=O)[C@H](CCCNC(=N)N)NC(=O)[C@@H](C)NC(=O)[C@H](N)CSSC[C@H](C(N)=O)NC1=O) [LXW13] |  | 1000 to 10000 |  |
| [dC][Sar]RGD[dD][dV][dC]-NH2 (disulfide 1-8; N-terminus assumed; SMILES CC(C)[C@H]1NC(=O)[C@@H](CC(=O)O)NC(=O)[C@H](CC(=O)O)NC(=O)CNC(=O)[C@H](CCCNC(=N)N)NC(=O)CN(C)C(=O)[C@H](N)CSSC[C@H](C(N)=O)NC1=O) [LXW14] |  | 1000 to 10000 |  |
| Cyclohexylacetyl-[dC]GRGD[dD][dV][dC]-NH2 (disulfide 1-8; SMILES CC(C)[C@H]1NC(=O)[C@@H](CC(=O)O)NC(=O)[C@H](CC(=O)O)NC(=O)CNC(=O)[C@H](CCCNC(=N)N)NC(=O)CNC(=O)[C@H](NC(=O)CC2CCCCC2)CSSC[C@H](C(N)=O)NC1=O) [LXW78] |  | 1000 to 10000 |  |
| {p‑chlorophenyl acetyl}-[dC]GRGD[dD][dV][dC]-NH2 (disulfide 1-8) [LXW81] |  | 1000 to 10000 |  |
| [dPen]GRGD[dD][dV][dC]-NH2 (disulfide 1-8; N-terminus assumed; SMILES CC(C)[C@H]1NC(=O)[C@@H](CC(=O)O)NC(=O)[C@H](CC(=O)O)NC(=O)CNC(=O)[C@H](CCCNC(=N)N)NC(=O)CNC(=O)[C@H](N)C(C)(C)SSC[C@H](C(N)=O)NC1=O) [LXW20] |  | 1000 to 10000 |  |
| Pentanoyl-[dC]GRGD[dD][dV][dC]-NH2 (disulfide 1-8; SMILES CCCCC(=O)N[C@@H]1CSSC[C@H](C(N)=O)NC(=O)[C@@H](C(C)C)NC(=O)[C@@H](CC(=O)O)NC(=O)[C@H](CC(=O)O)NC(=O)CNC(=O)[C@H](CCCNC(=N)N)NC(=O)CNC1=O) [LXW77] |  | 1000 to 10000 |  |
| [dC][βAla]RGD[dD][dV][dC]-NH2 (disulfide 1-8; N-terminus assumed; SMILES CC(C)[C@H]1NC(=O)[C@@H](CC(=O)O)NC(=O)[C@H](CC(=O)O)NC(=O)CNC(=O)[C@H](CCCNC(=N)N)NC(=O)CCNC(=O)[C@H](N)CSSC[C@H](C(N)=O)NC1=O) [LXW15] |  | 1000 to 10000 |  |
| [dC]GRGD[dD][dI][dC]-NH2 (disulfide 1-8; N-terminus assumed; SMILES CC[C@@H](C)[C@H]1NC(=O)[C@@H](CC(=O)O)NC(=O)[C@H](CC(=O)O)NC(=O)CNC(=O)[C@H](CCCNC(=N)N)NC(=O)CNC(=O)[C@H](N)CSSC[C@H](C(N)=O)NC1=O) [LXW26] |  | 1000 to 10000 |  |

More lines, main results first:

| IC50 ([1]; class symbols) [nM] | IC50 [2] [nM] | Molecule | other results |
| --- | --- | --- | --- |
| < 1000 |  | CC(C)[C@H]1NC(=O)[C@@H](CC(=O)O)NC(=O)[C@H](CC(=O)O)NC(=O)CNC(=O)[C@H](CCCNC(=N)N)NC(=O)CNC(=O)[C@H](NC(=O)c2ccc3ccccc3c2)CSSC[C@H](C(N)=O)NC1=O [LXW89, 2-naphthoyl-cGRGDdvc] (2Naphthoyl-[dC]GRGD[dD][dV][dC]-NH2; disulfide 1-8) |  |
| 1000 to 10000 |  | CC(C)[C@H]1NC(=O)[C@@H](CC(=O)O)NC(=O)[C@H](CC(=O)O)NC(=O)CNC(=O)[C@H](CCCNC(=N)N)NC(=O)CNC(=O)[C@H](N)CSSC[C@@H](C(N)=O)NC1=O [LXW10, cGRGDdvC] (H-[dC]GRGD[dD][dV]C-NH2; disulfide 1-8) |  |
| < 1000 |  | CC(C)[C@H]1NC(=O)[C@@H](CC(=O)O)NC(=O)[C@H](CC(=O)O)NC(=O)CNC(=O)[C@H](CCCNC(=N)N)N(C)C(=O)CNC(=O)[C@H](N)CSSC[C@H](C(N)=O)NC1=O [LXW53, cG-(NMe)Arg-GDdvc] (H-[dC]G[NMeR]GD[dD][dV][dC]-NH2; disulfide 1-8) |  |
| < 1000 |  | CC(C)C(=O)N[C@@H]1CSSC[C@H](C(N)=O)NC(=O)[C@@H](C(C)C)NC(=O)[C@@H](CC(=O)O)NC(=O)[C@H](CC(=O)O)NC(=O)CNC(=O)[C@H](CCCNC(=N)N)NC(=O)CNC1=O [LXW76, isobutyryl-cGRGDdvc] (Isobutyryl-[dC]GRGD[dD][dV][dC]-NH2; disulfide 1-8) |  |
| 1000 to 10000 |  | CC(C)[C@H]1NC(=O)[C@@H](CC(=O)O)NC(=O)[C@H](CC(=O)O)NC(=O)CNC(=O)[C@H](CCCNC(=N)N)NC(=O)CNC(=O)[C@H](NC(=O)Cc2ccc(Cl)cc2)CSSC[C@H](C(N)=O)NC1=O [LXW81, p-chlorophenyl acetyl-cGRGDdvc] ({Phenylacetyl(4-Cl)}-[dC]GRGD[dD][dV][dC]-NH2; disulfide 1-8) |  |
| < 1000 |  | N=C(N)NCCC[C@@H]1NC(=O)CNC(=O)[C@H](N)CSSC[C@H](C(N)=O)NC(=O)[C@@H](Cc2csc3ccccc23)NC(=O)[C@@H](CC(=O)O)NC(=O)[C@H](CC(=O)O)NC(=O)CNC1=O [LXW48, cGRGDd-DBta-c] |  |
| 1000 to 10000 |  | N=C(N)NCCC[C@@H]1NC(=O)CNC(=O)[C@H](N)CSSC[C@H](C(N)=O)NC(=O)[C@@H](Cc2cscn2)NC(=O)[C@@H](CC(=O)O)NC(=O)[C@H](CC(=O)O)NC(=O)CNC1=O [LXW69, cGRGDd-DTha-c] |  |
| 1000 to 10000 |  | N=C(N)NCCC[C@@H]1NC(=O)CNC(=O)[C@@H](N)CSSC[C@@H](C(N)=O)NC(=O)[C@@H](Cc2cccc3ccccc23)NC(=O)[C@@H](CC(=O)O)NC(=O)[C@H](CC(=O)O)NC(=O)CNC1=O [LXW47, CGRGDd-DNal1-C] |  |
| < 1000 |  | N=C(N)NCCC[C@@H]1NC(=O)CNC(=O)[C@H](N)CSSC[C@H](C(N)=O)NC(=O)[C@@H](Cc2ccc3ccccc3c2)NC(=O)[C@@H](CC(=O)O)NC(=O)[C@H](CC(=O)O)NC(=O)CNC1=O [LXW65, cGRGDd-DNal2-c] |  |
